How the values were obtained:
HeLa Kyoto [1] = assay: solubility change mitosis vs G1/S (difference of NP-40 vs SDS log2 ratios) (log2 ratio difference); higher = more soluble in mitosis
HeLa Kyoto [2] = assay: solubility in G1/S (NP-40 vs SDS abundance) (log2 ratio); higher = more soluble; conditions: cell cycle stage: G1/S
HeLa Kyoto [3] = assay: melting temperature (median over replicates), in situ; higher = more thermally stable
HeLa Kyoto [4] = assay: thermal stability score vs G1/S (z-score of summed log2 fold changes over temperatures); higher = more thermally stable than in G1/S
[5] = cell cycle stage: early G1 (4.5 h after nocodazole release)
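Throughout, for melting temperature (median over replicates), in situ: HeLa Kyoto cells synchronized by double thymidine or nocodazole block, proteins quantified by TMT10plex mass spectrometry, three independent biological replicates.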
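Throughout, for solubility change mitosis vs G1/S (difference of NP-40 vs SDS log2 ratios): synchronized HeLa Kyoto cells (double thymidine block for G1/S, nocodazole release for mitosis), protein amounts in NP-40 versus SDS lysates quantified by mass spectrometry, three biological replicates.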
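Throughout, for solubility in G1/S (NP-40 vs SDS abundance): HeLa Kyoto cells arrested at G1/S by double thymidine block, proteins quantified by TMT10plex mass spectrometry in mild NP-40 versus SDS extracts, three biological replicates.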
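Throughout, for thermal stability score vs G1/S (z-score of summed log2 fold changes over temperatures): synchronized HeLa Kyoto cells, proteins quantified by TMT10plex mass spectrometry, three biological replicates, mitosis taken 0.5 h after nocodazole release, G1/S directly after double thymidine block.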

Row | Sequence | solubility change mitosis (log2) (HeLa Kyoto [1]) | solubility in G1/S (log2) (HeLa Kyoto [2]) | melting temperature (HeLa Kyoto [3]; cell cycle stage: G1/S) | melting temperature (HeLa Kyoto [3]; cell cycle stage: mitosis) | thermal stability score (HeLa Kyoto [4]; [5]) | thermal stability score (HeLa Kyoto [4]; cell cycle stage: mitosis)
1 | MTARGLALGLLLLLLCPAQVFSQSCVWYGECGIAYGDKRYNCEYSGPPKPLPKDGYDLVQELCPGFFFGNVSLCCDVRQLQTLKDNLQLPLQFLSRCPSCFYNLLNLFCELTCSPRQSQFLNVTATEDYVDPVTNQTKTNVKELQYYVGQSFANAMYNACRDVEAPSSNDKALGLLCGKDADACNATNWIEYMFNKDNGQAPFTITPVFSDFPVHGMEPMNNATKGCDESVDEVTAPCSCQDCSIVCGPKPQPPPPPAPWTILGLDAMYVIMWITYMAFLLVFFGAFFAVWCYRKRYFVSEYTPIDSNIAFSVNASDKGEASCCDPVSAAFEGCLRRLFTRWGSFCVRNPGCVIFFSLVFITACSSGLVFVRVTTNPVDLWSAPSSQARLEKEYFDQHFGPFFRTEQLIIRAPLTDKHIYQPYPSGADVPFGPPLDIQILHQVLDLQIAIENITASYDNETVTLQDICLAPLSPYNTNCTILSVLNYFQNSHSVLDHKKGDDFFVYADYHTHFLYCVRAPASLNDTSLLHDPCLGTFGGPVFPWLVLGGYDDQNYNNATALVITFPVNNYYNDTEKLQRAQAWEKEFINFVKNYKNPNLTISFTAERSIEDELNRESDSDVFTVVISYAIMFLYISLALGHMKSCRRLLVDSKVSLGIAGILIVLSSVACSLGVFSYIGLPLTLIVIEVIPFLVLAVGVDNIFILVQAYQRDERLQGETLDQQLGRVLGEVAPSMFLSSFSETVAFFLGALSVMPAVHTFSLFAGLAVFIDFLLQITCFVSLLGLDIKRQEKNRLDIFCCVRGAEDGTSVQASESCLFRFFKNSYSPLLLKDWMRPIVIAIFVGVLSFSIAVLNKVDIGLDQSLSMPDDSYMVDYFKSISQYLHAGPPVYFVLEEGHDYTSSKGQNMVCGGMGCNNDSLVQQIFNAAQLDNYTRIGFAPSSWIDDYFDWVKPQSSCCRVDNITDQFCNASVVDPACVRCRPLTPEGKQRPQGGDFMRFLPMFLSDNPNPKCGKGGHAAYSSAVNILLGHGTRVGATYFMTYHTVLQTSADFIDALKKARLIASNVTETMGINGSAYRVFPYSVFYVFYEQYLTIIDDTIFNLGVSLGAIFLVTMVLLGCELWSAVIMCATIAMVLVNMFGVMWLWGISLNAVSLVNLVMSCGISVEFCSHITRAFTVSMKGSRVERAEEALAHMGSSVFSGITLTKFGGIVVLAFAKSQIFQIFYFRMYLAMVLLGATHGLIFLPVLLSYIGPSVNKAKSCATEERYKGTERERLLNF [NPC1] | -0.0644 | -0.0136 | 58.3 °C | 56.1 °C | -3.38 | -3.22
2 | MTDLVAVWDVALSDGVHKIEFEHGTTSGKRVVYVDGKEEIRKEWMFKLVGKETFYVGAAKTKATINIDAISGFAYEYTLEINGKSLKKYMEDRSKTTNTWVLHMDGENFRIVLEKDAMDVWCNGKKLETAGEFVDDGTETHFSIGNHDCYIKAVSSGKRKEGIIHTLIVDNREIPEIAS [FAIM] | -0.25 | -0.00968 | 50.8 °C | 49.1 °C | 0.651 | 1.16
3 | MTDQENNNNISSNPFAALFGSLADAKQFAAIQKEQLKQQSDELPASPDDSDNSVSESLDEFDYSVAEISRSFRSQQEICEQLNINHMIQRIFLITLDNSDPSLKSGNGIPSRCVYLEEMAVELEDQDWLDMSNVEQALFARLLLQDPGNHLINMTSSTTLNLSADRDAGERHIFCYLYSCFQRAKEEITKVPENLLPFAVQCRNLTVSNTRTVLLTPEIYVDQNIHEQLVDLMLEAIQGAHFEDVTEFLEEVIEALILDEEVRTFPEVMIPVFDILLGRIKDLELCQILLYAYLDILLYFTRQKDMAKVFVEYIQPKDPTNGQMYQKTLLGVILSISCLLKTPGVVENHGYFLNPSRSSPQEIKVQEANIHQFMAQFHEKIYQMLKNLLQLSPETKHCILSWLGNCLHANAGRTKIWANQMPEIFFQMYASDAFFLNLGAALLKLCQPFCKPRSSRLLTFNPTYCALKELNDEERKIKNVHMRGLDKETCLIPAVQEPKFPQNYNLVTENLALTEYTLYLGFHRLHDQMVKINQNLHRLQVAWRDAQQSSSPAADNLREQFERLMTIYLSTKTAMTEPQMLQNCLNLQVSMAVLLVQLAIGNEGSQPIELTFPLPDGYSSLAYVPEFFADNLGDFLIFLRRFADDILETSADSLEHVLHFITIFTGSIERMKNPHLRAKLAEVLEAVMPHLDQTPNPLVSSVFHRKRVFCNFQYAPQLAEALIKVFVDIEFTGDPHQFEQKFNYRRPMYPILRYMWGTDTYRESIKDLADYASKNLEAMNPPLFLRFLNLLMNDAIFLLDEAIQYLSKIKIQQIEKDRGEWDSLTPEARREKEAGLQMFGQLARFHNIMSNETIGTLAFLTSEIKSLFVHPFLAERIISMLNYFLQHLVGPKMGALKVKDFSEFDFKPQQLVSDICTIYLNLGDEENFCATVPKDGRSYSPTLFAQTVRVLKKINKPGNMIMAFSNLAERIKSLADLQQQEEETYADACDEFLDPIMSTLMCDPVVLPSSRVTVDRSTIARHLLSDQTDPFNRSPLTMDQIRPNTELKEKIQRWLAERKQQKEQLE [UBE4A] | -0.0832 | -0.123 | 49.4 °C | 50 °C | -0.166 | 0.519
4 | MTEEACRTRSQKRALERDPTEDDVESKKIKMERGLLASDLNTDGDMRVTPEPGAGPTQGLLRATEATAMAMGRGEGLVGDGPVDMRTSHSDMKSERRPPSPDVIVLSDNEQPSSPRVNGLTTVALKETSTEALMKSSPEERERMIKQLKEELRLEEAKLVLLKKLRQSQIQKEATAQKPTGSVGSTVTTPPPLVRGTQNIPAGKPSLQTSSARMPGSVIPPPLVRGGQQASSKLGPQASSQVVMPPLVRGAQQIHSIRQHSSTGPPPLLLAPRASVPSVQIQGQRIIQQGLIRVANVPNTSLLVNIPQPTPASLKGTTATSAQANSTPTSVASVVTSAESPASRQAAAKLALRKQLEKTLLEIPPPKPPAPEMNFLPSAANNEFIYLVGLEEVVQNLLETQGRMSAATVLSREPYMCAQCKTDFTCRWREEKSGAIMCENCMTTNQKKALKVEHTSRLKAAFVKALQQEQEIEQRLLQQGTAPAQAKAEPTAAPHPVLKQVIKPRRKLAFRSGEARDWSNGAVLQASSQLSRGSATTPRGVLHTFSPSPKLQNSASATALVSRTGRHSERTVSAGKGSATSNWKKTPLSTGGTLAFVSPSLAVHKSSSAVDRQREYLLDMIPPRSIPQSATWK [GATAD2A] | 0.0452 | 0.481 | 47.3 °C | 50.4 °C | 0.921 | 3.21
5 | MTELQQDVEDTKPAKVLGKRESKLGSAHSEAENGVEEKKKACRSPTAQSPTPSVEADSPDQKKIISLWSKSSFDGASLASDKNDCKTESKNDPKTERKKSSSSSQYKANMHFHKLFLSVPTEEPLKQSFTCALQKEILYQGKLFVSENWICFHSKVFGKDTKISIPAFSVTLIKKTKTALLVPNALIIATVTDRYIFVSLLSRDSTYKLLKSVCGHLENTSVGNSPNPSSAENSFRADRPSSLPLDFNDEFSDLDGVVQQRRQDMEGYSSSGSQTPESENSRDFHATESQTVLNVSKGEAKPTRADAHVNRVPEGKAKSLPVQGLSETVGILHKVKSQKCPMLHHILIFYAIVVCALIISTFYMRYRINTLEEQLGLLTSIVDTHNTEQAAPSGLRSQVQFNVEVLCQELTANIVKLEKIQNNLQKLLENGD [GRAMD3] | -0.244 | 0.0879 | 49.3 °C | 51 °C | -0.258 | 1.75
6 | MTELQSALLLRRQLAELNKNPVEGFSAGLIDDNDLYRWEVLIIGPPDTLYEGGVFKAHLTFPKDYPLRPPKMKFITEIWHPNVDKNGDVCISILHEPGEDKYGYEKPEERWLPIHTVETIMISVISMLADPNGDSPANVDAAKEWREDRNGEFKRKVARCVRKSQETAFE [UBE2G1] | 0.0506 | 0.543 | 51.7 °C | 53 °C | -0.274 | 0.392
7 | MTEQAISFAKDFLAGGIAAAISKTAVAPIERVKLLLQVQHASKQIAADKQYKGIVDCIVRIPKEQGVLSFWRGNLANVIRYFPTQALNFAFKDKYKQIFLGGVDKHTQFWRYFAGNLASGGAAGATSLCFVYPLDFARTRLAADVGKSGTEREFRGLGDCLVKITKSDGIRGLYQGFSVSVQGIIIYRAAYFGVYDTAKGMLPDPKNTHIVVSWMIAQTVTAVAGVVSYPFDTVRRRMMMQSGRKGADIMYTGTVDCWRKIFRDEGGKAFFKGAWSNVLRGMGGAFVLVLYDELKKVI [SLC25A6] | 0.0142 | -0.157 | 57.1 °C | 57.4 °C | -0.865 | -3.48
8 | MTERRRDELSEEINNLREKVMKQSEENNNLQSQVQKLTEENTTLREQVEPTPEDEDDDIELRGAAAAAAPPPPIEEECPEDLPEKFDGNPDMLAPFMAQCQIFMEKSTRDFSVDRVRVCFVTSMMTGRAARWASAKLERSHYLMHNYPAFMMEMKHVFEDPQRREVAKRKIRRLRQGMGSVIDYSNAFQMIAQDLDWNEPALIDQYHEGLSDHIQEELSHLEVAKSLSALIGQCIHIERRLARAAAARKPRSPPRALVLPHIASHHQVDPTEPVGGARMRLTQEEKERRRKLNLCLYCGTGGHYADNCPAKASKSSPAGKLPGPAVEGPSATGPEIIRSPQDDASSPHLQVMLQIHLPGRHTLFVRAMIDSGASGNFIDHEYVAQNGIPLRIKDWPILVEAIDGRPIASGPVVHETHDLIVDLGDHREVLSFDVTQSPFFPVVLGVRWLSTHDPNITWSTRSIVFDSEYCRYHCRMYSPIPPSLPPPAPQPPLYYPVDGYRVYQPVRYYYVQNVYTPVDEHVYPDHRLVDPHIEMIPGAHSIPSGHVYSLSEPEMAALRDFVARNVKDGLITPTIAPNGAQVLQVKRGWKLQVSYDCRAPNNFTIQNQYPRLSIPNLEDQAHLATYTEFVPQIPGYQTYPTYAAYPTYPVGFAWYPVGRDGQGRSLYVPVMITWNPHWYRQPPVPQYPPPQPPPPPPPPPPPPSYSTL [PEG10] | -0.00752 | 0.144 | 49.4 °C | 49.8 °C | 0.275 | 0.54
9 | MTFQASHRSAWGKSRKKNWQYEGPTQKLFLKRNNVSAPDGPSDPSISVSSEQSGAQQPPALQVERIVDKRKNKKGKTEYLVRWKGYDSEDDTWEPEQHLVNCEEYIHDFNRRHTEKQKESTLTRTNRTSPNNARKQISRSTNSNFSKTSPKALVIGKDHESKNSQLFAASQKFRKNTAPSLSSRKNMDLAKSGIKILVPKSPVKSRTAVDGFQSESPEKLDPVEQGQEDTVAPEVAAEKPVGALLGPGAERARMGSRPRIHPLVPQVPGPVTAAMATGLAVNGKGTSPFMDALTANGTTNIQTSVTGVTASKRKFIDDRRDQPFDKRLRFSVRQTESAYRYRDIVVRKQDGFTHILLSTKSSENNSLNPEVMREVQSALSTAAADDSKLVLLSAVGSVFCCGLDFIYFIRRLTDDRKRESTKMAEAIRNFVNTFIQFKKPIIVAVNGPAIGLGASILPLCDVVWANEKAWFQTPYTTFGQSPDGCSTVMFPKIMGGASANEMLLSGRKLTAQEACGKGLVSQVFWPGTFTQEVMVRIKELASCNPVVLEESKALVRCNMKMELEQANERECEVLKKIWGSAQGMDSMLKYLQRKIDEF [CDYL] | 0.533 | -0.609 | 51.4 °C | 51 °C | 2.51 | 0.875
